Measurements: patent publication US20180153986A1 (BRIGHAM AND WOMEN S HOSPITAL, published 2018)

Target: T1, human CEACAM1 (carcinoembryonic antigen related cell adhesion molecule 1) (human, UniProt P13688 35-526, limits assumed)
T1 construct: also called hCEACAM1; BGP
T1 sequence: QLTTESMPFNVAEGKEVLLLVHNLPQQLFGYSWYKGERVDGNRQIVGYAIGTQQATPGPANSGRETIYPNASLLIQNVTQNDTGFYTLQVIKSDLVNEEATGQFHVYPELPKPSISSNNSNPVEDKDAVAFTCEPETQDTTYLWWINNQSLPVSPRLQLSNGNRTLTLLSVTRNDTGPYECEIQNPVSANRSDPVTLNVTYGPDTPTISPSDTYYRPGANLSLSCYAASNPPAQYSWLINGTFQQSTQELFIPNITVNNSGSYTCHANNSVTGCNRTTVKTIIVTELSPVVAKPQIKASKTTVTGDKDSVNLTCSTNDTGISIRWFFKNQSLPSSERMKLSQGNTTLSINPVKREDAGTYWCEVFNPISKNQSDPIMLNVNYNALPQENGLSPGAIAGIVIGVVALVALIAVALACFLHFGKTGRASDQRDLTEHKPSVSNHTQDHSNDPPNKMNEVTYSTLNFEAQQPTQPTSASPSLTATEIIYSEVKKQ
Test: method not described ('as demonstrated herein'); support is structural prediction and co-expression

B1: human TIM-1 (T-cell immunoglobulin and mucin domain-containing protein 1) (receptor)
chain: SVKVGGEAGPSVTLPCHYSGAVTSMCWNRGSCSLFTCQNGIVWTNGTHVTYRKDTRYKLLGDLSRRDVSLTIENTAVSDSGVYCCRVEHRGWFNDMKITVSLEIVPPKVTTTPIVTTVPTVTTVRTSTTVPTTTTVPTTTVPTTMSIPTTTTVLTTMTVSTTTSVPTTTSIPTTTSVPVTTTVSTFVPPMPLPRQNHEPVATSPSSPQPAETHPTTLQGAIRREPTSSPLYSYTTDGNDTVTESSDGLWNNNQTQLFLEHSLLTANTTKGIYAGVCISVLVLLALLGVIIAKKYFFKKEVQQLSVSFSSLQIKALQNAVEKEVQAEDNIYIENSLYATD
notes: also called HAVCR; HAVCR-1
binding result: binds
